From patent US20130071390A1 (Merck Sharp & Dohme, published 2013)

Tests used:
[1] = target: T1, histidine-tagged extracellular domain of human Fc gamma receptor IIb/c (Pichia pastoris produced) (human, UniProt P31994 46-217); experiment: FcγR ELISA, receptor coated on plate
T1 construct: also called FcγRIIb/c; FcγRIIb
T1 sequence: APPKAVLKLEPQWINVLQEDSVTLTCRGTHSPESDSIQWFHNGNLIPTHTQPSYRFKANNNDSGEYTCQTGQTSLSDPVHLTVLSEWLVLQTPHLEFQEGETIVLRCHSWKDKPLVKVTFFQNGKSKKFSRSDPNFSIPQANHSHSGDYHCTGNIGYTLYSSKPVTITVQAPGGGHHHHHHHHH
Experimental: (§1) High protein binding 96-well plates (Corning Costar, Lowell, Mass.) were coated with 100 μl per well of Fcγ receptor solutions in PBS at the following concentrations: 1 μg/mL for FcγRI (R & D Systems) and FcγRIIa (Pichia pastoris produced), 2 μg/mL for FcγRIIb/c (P. pastoris produced), 0.4 μg/mL for FcγRIIIa-V158, and 0.8 μg/mL for FcγRIIIa-F158 (both P. pastoris produced).
(§2) For FcγRI, the antibody was coated in assay diluent (1% BSA, PBS, 0.05% Tween20) in monomeric form. For all other receptors, the antibody was coated after dimerization with alkaline phosphatase conjugated anti-human IgG F(ab′)₂ (Jackson ImmunoResearch, West Grove, Pa.) for one hour at room temperature. FcγRI bound antibody was also detected using the F(ab′)₂ and all plates were quantified by measuring excitation at 340 nm and emission at 465 nm after an 18 hour incubation with SuperPhosk (Virolabs, Chantilly, Va.).

[2] = target: T2, FcγRI (Fc receptor gamma-chain I, CD64) (UniProt P12314 16-288); experiment: FcγR ELISA
T2 construct: also called FcγR1
T2 sequence (P12314 16-288 limits assumed): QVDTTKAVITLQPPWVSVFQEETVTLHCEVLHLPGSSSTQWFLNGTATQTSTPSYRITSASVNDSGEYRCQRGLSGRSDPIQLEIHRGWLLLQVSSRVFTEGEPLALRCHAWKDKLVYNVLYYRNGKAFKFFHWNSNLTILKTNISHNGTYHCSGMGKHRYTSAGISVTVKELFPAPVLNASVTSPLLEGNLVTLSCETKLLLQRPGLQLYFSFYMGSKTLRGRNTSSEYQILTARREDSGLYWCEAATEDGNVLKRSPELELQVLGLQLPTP
Experimental: as §1, §2

binding result [1]: no binding
fold reduction in binding vs parent antibody (produced in GFI5.0) [2]: ~4 fold
B1: anti-PCSK9 double mutein antibody F243A/V264A produced in GFI6.0 (antibody, human IgG1, kappa)
heavy: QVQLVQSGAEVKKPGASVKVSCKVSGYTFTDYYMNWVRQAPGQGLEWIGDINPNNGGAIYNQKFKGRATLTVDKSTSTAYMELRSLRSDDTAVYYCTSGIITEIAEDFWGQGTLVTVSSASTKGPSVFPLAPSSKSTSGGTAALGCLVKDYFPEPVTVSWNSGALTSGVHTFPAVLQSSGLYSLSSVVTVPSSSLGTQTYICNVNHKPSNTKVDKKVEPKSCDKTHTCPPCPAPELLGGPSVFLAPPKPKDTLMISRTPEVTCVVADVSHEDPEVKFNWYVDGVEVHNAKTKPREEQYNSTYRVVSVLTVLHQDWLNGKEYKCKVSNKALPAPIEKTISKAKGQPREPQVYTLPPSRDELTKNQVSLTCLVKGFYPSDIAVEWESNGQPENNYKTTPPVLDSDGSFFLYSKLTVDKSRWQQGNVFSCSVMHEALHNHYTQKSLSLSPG
light: DIQMTQSPSSLSASVGDRVTITCKASQNVGTNVVWYQQKPGKAPKALIHSASYRYSGVPSRFSGSGSGTDFTLTISSLQPEDFATYYCQQYKTYPYTFGQGTKVEIKRTVAAPSVFIFPPSDEQLKSGTASVVCLLNNFYPREAKVQWKVDNALQSGNSQESVTEQDSKDSTYSLSSTLTLSKADYEKHKVYACEVTHQGLSSPVTKSFNRGEC
